Results on 1 protein are retold here after article PMC3098940 (ACS chemical biology, 2011).

The data set deals with the molecule itself. The experiment in a line: SEC. A general note: Size exclusion chromatography separates by hydrodynamic size, large species first.

B1: phosphorylated Stat3β (residues 127-722), wildtype (domain or fragment, murine, UniProt P42227-2 127-722, looked up)
chain: GQANHPTAAVVTEKQQMLEQHLQDVRKRVQDLEQKMKVVENLQDDFDFNYKTLKSQGDMQDLNGNNQSVTRQKMQQLEQMLTALDQMRRSIVSELAGLLSAMEYVQKTLTDEELADWKRRQQIACIGGPPNICLDRLENWITSLAESQLQTRQQIKKLEELQQKVSYKGDPIVQHRPMLEERIVELFRNLMKSAFVVERQPCMPMHPDRPLVIKTGVQFTTKVRLLVKFPELNYQLKIKVCIDKDSGDVAALRGSRKFNILGTNTKVMNMEESNNGSLSAEFKHLTLREQRCGNGGRANCDASLIVTEELHLITFETEVYHQGLKIDLETHSLPVVVISNICQMPNAWASILWYNMLTNNPKNVNFFTKPPIGTWDQVAEVLSWQFSSTTKRGLSIEQLTTLAEKLLGPGVNYSGCQITWAKFCKENMAGKGFSFWVWLDNIIDLVKKYILALWNEGYIMGFISKERERAILSTKPPGTFLLRFSESSKEGGVTFTWVEKDISGKTQIQSVEPYTKQQLNNMSFAEIIMGYKIMDATNILVSPLVYLYPDIPKEEAFGKYCRPESQEHPEADPGSAAPYLKTKFICVTPFIDAVWK
modifications: phosphotyrosine at 705
As usually defined, the stoichiometry N is the number of molecules, sites or subunits per partner or assembly. With B1, the “stoichiometry N” value was 2.
